Assay results taken from a protein production outcome set (Wang et al. 2014).

Assay: label from the status in PepcDB records

Sequence | protein production
MHNDFNLLILSGPSGAGKSTLTKYLQEKIPKTHFSLSTTTRKPREGEVDGLHYNFVSEEEFKQGIEKGQFLEWAIVHNHYYGTSKIPVEKALKEGKIVIFDIDVQGHEILKKHYPNACSVFISTKNQEILKERLLLRGTDSKETIEKRLINAYKEMQCLESFDYLIINEDLEKSKEIILSIAKTLVHRLKAFNFEKICKAWKNETL | failed
MHPSLKYMRKDRLPHIFCSGCGNGIVLNCFTNALDKLALKNEDYIAISGIGCSSRVPGYLFCDSLHTTHGRPIAFALGTKVIQNDKKVVVFTGDGDLSAIGGNHFIHGCRRNIDITVICINNNIYGMTGGQCSPTTPHEKKATTAPYGNPENPLDLCELAKAAGATYVARWTTANPIQLANSIKKGMDKKGFSFIEVVSQCPTYYGRFNVSRKPSEMMKNLKESAITVRKAESMEKEELLNKIVVGEFLNIEKPEYVEQLKKLQE | failed
MHQLWTYDPAAGTVEVGAGTTNEGLVDGPGEEAWFAQPSGLAATADRLWLADSETSALRWVDLDGAVHTAVGTGLFDFGHRDGDAEQALLQHPLGVTALPDGSVAVSDTYNHALRRYDPATGEVTTLATDLREPSDAVLVGDDIVVVESARHRLTRLRLPEEAVRVASVAHRTQRAATEVAPGRLQLDVIFQAPAGQKLDTRYGPSTRLLVSSTPPELLLNGEGADPDLSRTLELNPAIPEGVLHVSAMAASCDDDPANEYPACHVHQQDWGVPVRLTEGGADRLPLVLAGMDALEHHHHHH | failed
MHQQTLWLFSGIALVLIIATLISETLRWRARERPSAVLDNLVARIRAWWVMAAVVGLAFVFGRAGVIGLFALVSLFALREFITLTPTRRGDYYALLAAFYVVLPWQYGLVWTGWYGLYTLLIPVYAFLVLPILATIGGDTTRYLERTAKVQWGLMICVFCISHVPALLNLDIPGYAGRNLLLIAFLVIVVQSSDVLQYVWGKLAGRHLIAPKLSPSKTVEGFIGGVVSASLLGMALWWITPFAPWHAFGLALVANLMGFFGGLVMSAIKRDRGIKDWGHMIEGHGGVLDRLDSVCFAAPVFFHLIRYGWA | failed
MHRFLSGPLSVEQLTVNIAGLSASLQGKKLVHLSDFHYDGLRLSEEMLAEAIAVSNQVQPDLVLLTGDYVTTTPQPIHQLAKRLQKLQSHAGIYAILGNHDLYQKNSKTEITQALTKAGIQVLWNEIAYPLGEELPIVGIVDYYYREFNPQLLFNQLEPTTPRIVLCHNPDTAAMLQGWRVDLQLSGHTHGGQIVIPGLGAVLPYHKKIVRRVPIKIRRLFPLFFKDYFIVRHAEWLQGLHRIGKNQLYVNRGLGTYLPGRLFCPPELTVITLEAE | failed
MHRLRNLREDVSDGSLGHGGGGLMYDVVVVGAGPAGSMAAKTAAEQGLKVLLVEKRQEIGTPVRCAEGISRESIEKFFEVDKKWIAAEVTGAKIYAPNKTEIVMSEEMAGNEVGYVLERKIFDRHVARLAAKAGAEVYVKTAMVDFERKDGKVKVKLRRLGEDWEVETKILIGADGVESKIGRKAGIIKTLKLNEVESCAQYLMTGLDIDESYTYFYLGRELAPGGYAWIFPKGNGSANVGIGVLPKMAERTAKEYLDAFIEKEGIEGKIVEFVAGAVPVYGEIETAVADNIMLAGDAAYHADPITGGGIANALSAGYYAGKVAAEAVQKNDFSADFLRRYDELWKNDFGKKLRRNKKLQLKFIDMDDALLNKLAGAIAGKNLREMSVAAIVKELLKAHPKLLWDLKDLFLEHHHHHH | not failed
MHRSTFIRTSGTSSRTLTARYRSQYTGLLVARVLFSTSTTRAQGGNPRSPLQIFRDTFKKEWEKSQELQENIKTLQDASGKLGESEAYKKAREAYLKAQRGSTIVGKTLKKTGETMEHIATKAWESELGKNTRKAAAATAKKLDESFEPVRQTKIYKEVSEVIDDGESSRYGGFITKEQRRLKRERDLASGKRHRAVKSNEDAGTAVVATNIESKESFGKKVEDFKEKTVVGRSIQSLKNKLWDESENPLIVVMRKITNKVGGFFAETESSRVYSQFKLMDPTFSNESFTRHLREYIVPEILEAYVKGDVKVLKKWFSEAPFNVYAAQQKIFKEQDVYADGRILDIRGVEIVSAKLLAPQDIPVLVVGCRAQEINLYRKKKTGEIAAGDEANILMSSYAMVFTRDPEQIDDDETEGWKILEFVRGGSRQFT | failed
MHRVGSAGSNGGSVRTRKEKKLTYVLNDANDTKHCAGINCLDVLKSSVSNDQSYLFTGSRDGTLKRWAFDEDATFCSATFESHVDWVNDAALAGESTLVSCSSDTTVKTWDGLSDGVCTRTLRQHSDYVTCLAVAAKNNNVVASGGLGGEVFIWDIEAALSPVTKPNDANEDSSSNGANGPVTSLRTVGSSNNISVQSSPSHGYTPTIAKGHKESVYALAMNDTGTMLVSGGTEKVLRVWDPRTGSKSMKLRGHTDNVRVLLLDSTGRFCLSGSSDSMIRLWDLGQQRCLHTYAVHTDSVWALACNPSFSHVYSGGRDQCLYLTDLATRESVLLCTKEHPIQQLALQDNSIWVATTDSSVERWPAEVQSPKTVFQRGGSFLAGNLSFNRARVSLEGLNPAPAYKEPSITVPGTHPIVQHEILNNKRQILTKDAAGSVKLWDITRGVVVEDYGKISFEEKKEELFEMVSIPSWFTVDTRLGCLSVHLETPQCFSAEMYSADLKVSGRPEDDKINLARETLKGLLGHWLAKKKHKPKPQVLASGDTLSVKDTKKNLSASKTEESSAASDPVYPPFEFSSVSPPSIITEGSQGGPWRKKITEFTGTEDEKDFPLWCLDAVLNNRLPPRENTKLSFFLHPCEGSSVQVVTLGKLSAPRILRVHKVTNYVVEKMVLDNPLDSLAIDAASVSGGQPQPLFSGNGLLQSGLKPWQKLRPSIEILCNSQVLSPDMSLATVRAYVWKKPEDLILNYRVAIAR | failed
MHSATIIIGIVCGWIFILTTVQFLYLLIIKRDLQPTGWCSFMEKDYLGISSTVLVSLLFGLALVLVNSWFNQPTVEEVVPRSTYLMVMIALFFIDTVAFIFMQLYFIYDRRQFSNCILSLAFLSCLIYFIKTVIIIQQIIEGRLTSSVVQNDIAIYYLFRQMSLCILIFLALVNKVSENTKQRNLFSKKMTLCISLFFVVGGPIVAHILSSHYESYNLHIAELTNENDQVVWKASYVTIMIFMWLTLLSVNLYFNGLRCDIWNGVTVIAFCAVLYNVSLLFMSRYSVSIWYISRTIEVVSKLTVMVIFMCHIFSALRVTKDIAHRDSLTNIFNRNYFFNELTVQSASAKKTPYCVMIMDIDHFKKVNDTWGHPVGDQVIKTVVSIIGKSIRPDDLFARVGGEEFGVLLTDIDTERAKALAERIRENVERLTGDNPEYAIPQKVTISIGAVVTQKNELNPKEIYQLADNALYEAKETGRNKVVVKEAEILINRKDDE | failed
MHSDSGSDSGSDSGSGSPMVSSIHPSEPIQPMEHVLEEADARLLTEVGFLAAAVSDLTRADAIFNALQRVRPGRTHPCIGLAVARMNAGLPDEAAEILANFQPAQPEDRSELDAWCGFALLLAGRSDEARRMLQRAIDAGGEAARLAQVVLDSGPAMMRPAPLQSEPLPGAPG | failed
MHSEHGRQNVKVELKGVHRVRRKLASGETAVYHYAWRGGPRIDAAPGSAEFVAAYNAAHAARDRPVHHDGTLQALITAYQKTPAFTDLAEATRKGYIRHIRQIEADFGDMPVQALADPRVRGEFLDWRDRLAQKSKRSADYAFSVLARILSWAHDRRKIPVNPCEKPGRLYTGSRADSIWTEAQIAAFLAVAPRPVRLPFLLAIWTGQRQADILQLTWTAYDGQAIRLRQSKTGRHMLIPVAQPLREAMEEAKARRRTLTICETSRGQPWTSDGFKTSFGKAQASAGIEGVTFHDLRGTAVTFLALAGCSVPEIAALTGHSLKDAEGILSKHYLGRDRRLGESAVAKLEKHGVGTPTVKRAVKRRGPEGGDSV | failed
MHSEMTVPGFETRLAKVQDVWRDNRCLKSSSIGQYLYWIHRFHHYCIAEALDADEQLTQAGVSLFAQWYARQRRVDAECACQGAQSALRAWALGLSTLGVEIPPWQCDTDRTSESEPRLQDFAEHLRQHRGNPEATIKKKLAHIRCFLAFIAARHRPLRHLKLTDIDAFLVDCSQRYARTTTADIGSSLRGYVRFLLVTGQVTADLAPSIVTPIVRHYEQPLRALPWDDVRHILAAIDRSSPIGLRDYALLLLMSTYGLGAGEVIRLTLDDIDWQAATLRVVRPKTGVAFVLPLLPALAQALADYLKHGRPRRAPSRHVFQSMRAPHYPLSESSAIRHILVGHARKAGVTAAYLGSHVLRHTHACRQVEQEISPKVLSDILGHRSPESLSAYVRIATERLRQLPLPVPE | failed
MHSGLDNSAELRVSDFDPITLAGGTRTEVLPGAIQPHAALLALAPADLTIVHAAGATASLLGAAAELLPGTAASTAFSSDQIARLQALATAERWIERPQHAFTLNAPDATPIDVIVHHASGLLVVELDPRREPAPENSLALVQSMIRRARPAPNLQGFCDAMAAELRSVTGFDRVMVYRFARDGSADVIAEARGPETSPFLGLRDPQPDISNQPGSISRIRVQPDVHAPAAPLWPAHSPRNGLALDLSFSATRSASPEHRLYLAQLGVAASLSLSLVVEGELWGLIVCHHATPRFLPYRMREACALFAEMASLQLETRLAADQLAARLRSTRIHEELVTRMSQESDLAEGLIRFYPNLLDFIPAAGVGLWIDGQFTGIGATPGPAQVAAMMGWLHGVPHDGVYHTDCLALAYPPAKAFAGCASGLLALSLSNTPHNYVLWFRPEVVRVVTWAGMPNKPVGVDAGAPRTPKGCASSWQESVRLHGEPWLDTDVDAAHRLRESLLDVVLRRIDGIARERRSAQLLQEQLMRQVELGLSRSKDVAKTLQEEKRRRVLVEADLSKVLRRTVEDQEAERLRIARELHDTLGQSLTLLQLGFDKLGQAAGDNPELQQRIAEMKSLTADVGRQANRLAWEIRPTALDDLGIQTAIQNLLDSWSEKSSIEFDLHMTLGSRRLPSPVETTLYRVLQEALTNVVRHASARHVSVILQLGDDQVTMIVEDDGCGFVTAGRKPPSGRLGLLGIRERLSLVGGSLEIESAPGKGTALYARIPL | failed
MHSQASNPSATPEPETPNAAGGKRSVFAVILGNAVEFFDFGVYATFAVMIGHTFFPSDSAFVSLMLSVTAFGVGFIVRPLGAVLIGAYADRVGRKPAMLLTLVMMAVGTGSIAILPSYESIGIAAPILLVLTRLIQGLAWGGEAGPATTYILEAAPAHKRGTYACWQVVAQGVAAMAAGTVGYTLTQVLSPEDLNSWGWRVPFVFGLLVLPIGIYIRRNLAETFHGQGETASTGSLVRQVFGEHRRALVLGLLILSGSTITQYFINYMTTFALTELKLPTSISMLSTLVAGAAMAVCAIAGGMLCDRFGRRTILMAPRVVLLLVLFPALQLMTEHPSPTTFLLTLAVLSGLHGMSGAALIVLLVESFPKAVRSTGFSIVYAFGVAAFGGTAQIIITWLIGTTGNPMSPVGYLLVANLVCLTAAWFAKETRPQAPGRSNPGQRLAEARAR | failed
MHSSSRASFTTRGDIRRQVEGFSASGERNKDTVVDLSTFFAERGYSNNQAPTKYWEEKLVTIGNVVVPKWVPVKERNSSNKQKEGEDEVFIGFEAIYYPEQPPERQPITLYQEENKVEEEEQSRE | not failed
MHSVPSTGFPQSEFSGPFWTGRGVACARPNRYVWTARPSDQSSRRMSTSFSRRLRRLQSQKETALCVGLDPVPARFPPSLQDGRLRTDAVRAFCTTIVEATAPYACAFKPNFAFFEALGPAGLTVLDQVVTTIPDDCLVLGDAKRGDIGHSARHYAASIYEELGLDACTVSPYLGRDSVMPFLEHEGTCTFVLARTSNDGAADLQEACTCDGTPLYRHVARRVQAWNADAPGGAGLVVGATAPAALQDLRSLCPSLPFLVPGVGAQGGDAAAVMDAAATDEGPVLVNSSRSILYASEGPNYANAAADAARALRDALNGGASSSRGAPSPPALEHHHHHH | failed
MHTFKIDCQLHYRVIQMTEFVFQFEVAEHPWQTLIHESFQFKPDLAFEQYERDAGLNRLIRVNAPEGDLSVSYTAKVQTHIPERNTSLKECEIKDLPSDTLFYLAPSRFCESDLIDTMVTNTFAELPKGYSRVQAICDWIHDNIIYQSGSSDSTTTARDILVNRAGVCRDFAHLGIAICRALNIPARFVFGYMPFYQAQPDFHAIFEVYLENQWMLFDATRMGPIDQFVRVGTGLDAKDVPFATVYGEIELISMSPVIELV | failed
MHTNWQVCSLVVQAKSERISDISTQLNAFPGCEVAVSDAPSGQLIVVVEAEDSETLIQTIESVRNVEGVLAVSLVYHQQEEQGEETP | not failed
